Data reported in the array DNA melting data of Ke et al..

assay: melting temperature; melt of duplexes; conditions: sodium 0.0675 M; strand 1 µM

Row | Substance | Tm [°C]
1 | CGACGTGCTCAATGTGCTG+CAGCACATACGGCACGTCG ((((((((...((((((((+))))))))...)))))))) | 48.1
2 | CGACGTGCTCAATGTGCTG+CAGCACATAGGGCACGTCG ((((((((.(.((((((((+)))))))).).)))))))) | 52.8
3 | CGACGTGCTCAATGTGCTG+CAGCACATATCGCACGTCG ((((((((...((((((((+))))))))...)))))))) | 47.5
4 | CGACGTGCTCAATGTGCTG+CAGCACATCAGGCACGTCG ((((((((...((((((((+))))))))...)))))))) | 50.5
5 | CGACGTGCTCAATGTGCTG+CAGCACATCATGCACGTCG ((((((((...((((((((+))))))))...)))))))) | 49.7
6 | CGACGTGCTCAATGTGCTG+CAGCACATCCAGCACGTCG (((((((((..((((((((+))))))))..))))))))) | 50.5
7 | CGACGTGCTCAATGTGCTG+CAGCACATCTAGCACGTCG (((((((((..((((((((+))))))))..))))))))) | 51
8 | CGACGTGCTCAATGTGCTG+CAGCACATGAAGCACGTCG (((((((((..((((((((+))))))))..))))))))) | 53.6
9 | CGACGTGCTCAATGTGCTG+CAGCACATGACGCACGTCG ((((((((...((((((((+))))))))...)))))))) | 48.7
10 | CGACGTGCTCAATGTGCTG+CAGCACATGCCGCACGTCG ((((((((...((((((((+))))))))...)))))))) | 49
11 | CGACGTGCTCAATGTGCTG+CAGCACATGGCGCACGTCG ((((((((.(.((((((((+)))))))).).)))))))) | 51.8
12 | CGACGTGCTCAATGTGCTG+CAGCACATGGGGCACGTCG ((((((((.(.((((((((+)))))))).).)))))))) | 55
13 | CGACGTGCTCAATGTGCTG+CAGCACATTCGGCACGTCG ((((((((..(((((((((+)))))))))..)))))))) | 51.2
14 | CGACGTGCTCAATGTGCTG+CAGCACATTGTGCACGTCG ((((((((.((((((((((+)))))))))).)))))))) | 56.7
15 | CGACGTGCTCAATGTGCTG+CAGCACATTTAGCACGTCG (((((((((.(((((((((+))))))))).))))))))) | 54.7
16 | CGACGTGCTCCATGTGCTG+CAGCACATAAAGCACGTCG (((((((((..((((((((+))))))))..))))))))) | 50.9
17 | CGACGTGCTCCATGTGCTG+CAGCACATAACGCACGTCG ((((((((...((((((((+))))))))...)))))))) | 47
18 | CGACGTGCTCCATGTGCTG+CAGCACATAGGGCACGTCG ((((((((.(.((((((((+)))))))).).)))))))) | 52.3
19 | CGACGTGCTCCATGTGCTG+CAGCACATATTGCACGTCG ((((((((...((((((((+))))))))...)))))))) | 47.9
20 | CGACGTGCTCCATGTGCTG+CAGCACATCACGCACGTCG ((((((((...((((((((+))))))))...)))))))) | 47
21 | CGACGTGCTCCATGTGCTG+CAGCACATCAGGCACGTCG ((((((((...((((((((+))))))))...)))))))) | 48.6
22 | CGACGTGCTCCATGTGCTG+CAGCACATCCAGCACGTCG (((((((((..((((((((+))))))))..))))))))) | 48.7
23 | CGACGTGCTCCATGTGCTG+CAGCACATCGGGCACGTCG ((((((((.(.((((((((+)))))))).).)))))))) | 51.2
24 | CGACGTGCTCCATGTGCTG+CAGCACATCGTGCACGTCG ((((((((.(.((((((((+)))))))).).)))))))) | 44.7

Row | Substance | Tm [°C]
25 | CGACGTGCTCCATGTGCTG+CAGCACATCTAGCACGTCG (((((((((..((((((((+))))))))..))))))))) | 49.5
26 | CGACGTGCTCCATGTGCTG+CAGCACATGACGCACGTCG ((((((((..(((((((((+)))))))))..)))))))) | 49.8
27 | CGACGTGCTCCATGTGCTG+CAGCACATGATGCACGTCG ((((((((..(((((((((+)))))))))..)))))))) | 53.7
28 | CGACGTGCTCCATGTGCTG+CAGCACATGCAGCACGTCG (((((((((.(((((((((+))))))))).))))))))) | 55.3
29 | CGACGTGCTCCATGTGCTG+CAGCACATGGGGCACGTCG ((((((((.((((((((((+)))))))))).)))))))) | 61.9
30 | CGACGTGCTCCATGTGCTG+CAGCACATGGTGCACGTCG ((((((((.((((((((((+)))))))))).)))))))) | 58.9
31 | CGACGTGCTCCATGTGCTG+CAGCACATGTGGCACGTCG ((((((((..(((((((((+)))))))))..)))))))) | 53.8
32 | CGACGTGCTCCATGTGCTG+CAGCACATGTTGCACGTCG ((((((((..(((((((((+)))))))))..)))))))) | 52.7
33 | CGACGTGCTCCATGTGCTG+CAGCACATTATGCACGTCG ((((((((...((((((((+))))))))...)))))))) | 47.6
34 | CGACGTGCTCCATGTGCTG+CAGCACATTCCGCACGTCG ((((((((...((((((((+))))))))...)))))))) | 45.6
35 | CGACGTGCTCCATGTGCTG+CAGCACATTGAGCACGTCG ((((((((((.((((((((+)))))))).)))))))))) | 56.5
36 | CGACGTGCTCCATGTGCTG+CAGCACATTTCGCACGTCG ((((((((...((((((((+))))))))...)))))))) | 45.7
37 | CGACGTGCTCCATGTGCTG+CAGCACATTTGGCACGTCG ((((((((...((((((((+))))))))...)))))))) | 48.3
38 | CGACGTGCTCGATGTGCTG+CAGCACATAAAGCACGTCG (((((((((..((((((((+))))))))..))))))))) | 52.7
39 | CGACGTGCTCGATGTGCTG+CAGCACATAACGCACGTCG ((((((((...((((((((+))))))))...)))))))) | 49
40 | CGACGTGCTCGATGTGCTG+CAGCACATAATGCACGTCG ((((((((...((((((((+))))))))...)))))))) | 49.7
41 | CGACGTGCTCGATGTGCTG+CAGCACATACAGCACGTCG (((((((((..((((((((+))))))))..))))))))) | 51.8
42 | CGACGTGCTCGATGTGCTG+CAGCACATACGGCACGTCG ((((((((...((((((((+))))))))...)))))))) | 50.5
43 | CGACGTGCTCGATGTGCTG+CAGCACATAGGGCACGTCG ((((((((.(.((((((((+)))))))).).)))))))) | 55.4
44 | CGACGTGCTCGATGTGCTG+CAGCACATATCGCACGTCG ((((((((...((((((((+))))))))...)))))))) | 47.8
45 | CGACGTGCTCGATGTGCTG+CAGCACATATGGCACGTCG ((((((((...((((((((+))))))))...)))))))) | 50.5
46 | CGACGTGCTCGATGTGCTG+CAGCACATCAGGCACGTCG ((((((((..(((((((((+)))))))))..)))))))) | 55.4
47 | CGACGTGCTCGATGTGCTG+CAGCACATCATGCACGTCG ((((((((..(((((((((+)))))))))..)))))))) | 54.1
48 | CGACGTGCTCGATGTGCTG+CAGCACATCGCGCACGTCG ((((((((.((((((((((+)))))))))).)))))))) | 59.6

Row | Substance | Tm [°C]
49 | CGACGTGCTCGATGTGCTG+CAGCACATCTGGCACGTCG ((((((((..(((((((((+)))))))))..)))))))) | 54.3
50 | CGACGTGCTCGATGTGCTG+CAGCACATCTTGCACGTCG ((((((((..(((((((((+)))))))))..)))))))) | 53.3
51 | CGACGTGCTCGATGTGCTG+CAGCACATGCAGCACGTCG (((((((((..((((((((+))))))))..))))))))) | 52.1
52 | CGACGTGCTCGATGTGCTG+CAGCACATGGAGCACGTCG ((((((((((.((((((((+)))))))).)))))))))) | 59.3
53 | CGACGTGCTCGATGTGCTG+CAGCACATGGCGCACGTCG ((((((((.(.((((((((+)))))))).).)))))))) | 50.8
54 | CGACGTGCTCGATGTGCTG+CAGCACATGTCGCACGTCG ((((((((...((((((((+))))))))...)))))))) | 48.2
55 | CGACGTGCTCGATGTGCTG+CAGCACATTAAGCACGTCG (((((((((..((((((((+))))))))..))))))))) | 51.9
56 | CGACGTGCTCGATGTGCTG+CAGCACATTAGGCACGTCG ((((((((...((((((((+))))))))...)))))))) | 50.9
57 | CGACGTGCTCGATGTGCTG+CAGCACATTCGGCACGTCG ((((((((...((((((((+))))))))...)))))))) | 52.3
58 | CGACGTGCTCGATGTGCTG+CAGCACATTCTGCACGTCG ((((((((...((((((((+))))))))...)))))))) | 49.4
59 | CGACGTGCTCGATGTGCTG+CAGCACATTGAGCACGTCG ((((((((((.((((((((+)))))))).)))))))))) | 60.7
60 | CGACGTGCTCGATGTGCTG+CAGCACATTGCGCACGTCG ((((((((.(.((((((((+)))))))).).)))))))) | 52.4
61 | CGACGTGCTCGATGTGCTG+CAGCACATTGGGCACGTCG ((((((((.(.((((((((+)))))))).).)))))))) | 55.7
62 | CGACGTGCTCGATGTGCTG+CAGCACATTTCGCACGTCG ((((((((...((((((((+))))))))...)))))))) | 48.1
63 | CGACGTGCTCGATGTGCTG+CAGCACATTTGGCACGTCG ((((((((...((((((((+))))))))...)))))))) | 50.3
64 | CGACGTGCTCTATGTGCTG+CAGCACATAAAGCACGTCG (((((((((.(((((((((+))))))))).))))))))) | 54
65 | CGACGTGCTCTATGTGCTG+CAGCACATAAGGCACGTCG ((((((((..(((((((((+)))))))))..)))))))) | 52.2
66 | CGACGTGCTCTATGTGCTG+CAGCACATAATGCACGTCG ((((((((..(((((((((+)))))))))..)))))))) | 50.4
67 | CGACGTGCTCTATGTGCTG+CAGCACATACCGCACGTCG ((((((((..(((((((((+)))))))))..)))))))) | 48.5
68 | CGACGTGCTCTATGTGCTG+CAGCACATACGGCACGTCG ((((((((..(((((((((+)))))))))..)))))))) | 49.7
69 | CGACGTGCTCTATGTGCTG+CAGCACATAGAGCACGTCG (((((((((((((((((((+))))))))))))))))))) | 63
70 | CGACGTGCTCTATGTGCTG+CAGCACATAGGGCACGTCG ((((((((.((((((((((+)))))))))).)))))))) | 58.4
71 | CGACGTGCTCTATGTGCTG+CAGCACATAGTGCACGTCG ((((((((.((((((((((+)))))))))).)))))))) | 54.1
72 | CGACGTGCTCTATGTGCTG+CAGCACATATAGCACGTCG (((((((((.(((((((((+))))))))).))))))))) | 54.3
